Biological target: human CD200 activation receptors (CD200AR) (human)
Test: cell-based or functional assay

## Ac-CLFNTFGFGAISGTA-NH2 [human CD200AR-L peptide P4A10]
  T-cell secretion of IFNγ after treatment of iDCs with P4A10: 5.4 fold
  T-cell secretion of IL6 after treatment of iDCs with P4A10: 5.6 fold
  T-cell secretion of RANTES after treatment of iDCs with P4A10: 16.3 fold
  T-cell secretion of TNFα after treatment of iDCs with P4A10: 16.6 fold
